{
  "source": "the supplement of paper PMC9112550",
  "about": "“Optimization of the antimicrobial peptide Bac7 by deep mutational scanning” (BMC Biology, 2022);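 note: peptides expressed intracellularly from a pBAD plasmid library in pooled LB shake-flask culture, induced with 0.3% L-arabinose, DNA abundance read by NGS, three biological replicates, DESeq2 with apeglm shrinkage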",
  "data": [
    {"tested_on": "Escherichia coli TOP10", "experiment": "shrunken log2 fold change of peptide-encoding DNA abundance (4.5 h post-induction vs induction); higher = less antimicrobial activity (less host growth inhibition)", "settings": "time post-induction: 4.5 h; library: site-saturation at positions 5, 18, 19, 20", "values": [
      {"sequence": "RRIRTRPPRLPRPRPRPFLFPRP", "shrunken log2 fold change": -0.303},
      {"sequence": "RRIRSRPPRLPRPRPRPHTGPRP", "shrunken log2 fold change": -0.703},
      {"sequence": "RRIRSRPPRLPRPRPRPNDFPRP", "shrunken log2 fold change": -0.19},
      {"sequence": "RRIRRRPPRLPRPRPRPAAIPRP", "shrunken log2 fold change": 0.181},
      {"sequence": "RRIRARPPRLPRPRPRPVHIPRP", "shrunken log2 fold change": -0.177},
      {"sequence": "RRIRPRPPRLPRPRPRPADQPRP", "shrunken log2 fold change": 0.00426},
      {"sequence": "RRIRCRPPRLPRPRPRPIVAPRP", "shrunken log2 fold change": 0.0801},
      {"sequence": "RRIRCRPPRLPRPRPRPLYKPRP", "shrunken log2 fold change": -0.275},
      {"sequence": "RRIRCRPPRLPRPRPRPDGNPRP", "shrunken log2 fold change": -0.158},
      {"sequence": "RRIRNRPPRLPRPRPRPALCPRP", "shrunken log2 fold change": -0.0208},
      {"sequence": "RRIRYRPPRLPRPRPRPAWNPRP", "shrunken log2 fold change": -0.374},
      {"sequence": "RRIRERPPRLPRPRPRPLPGPRP", "shrunken log2 fold change": -0.165},
      {"sequence": "RRIRFRPPRLPRPRPRPAFMPRP", "shrunken log2 fold change": -0.164},
      {"sequence": "RRIRLRPPRLPRPRPRPSEWPRP", "shrunken log2 fold change": -0.0637},
      {"sequence": "RRIRNRPPRLPRPRPRPTYPPRP", "shrunken log2 fold change": -0.275},
      {"sequence": "RRIRCRPPRLPRPRPRPSDFPRP", "shrunken log2 fold change": -0.203},
      {"sequence": "RRIRNRPPRLPRPRPRPFCIPRP", "shrunken log2 fold change": -0.186},
      {"sequence": "RRIRGRPPRLPRPRPRPVAWPRP", "shrunken log2 fold change": 0.508},
      {"sequence": "RRIRARPPRLPRPRPRPGEYPRP", "shrunken log2 fold change": 0.0829},
      {"sequence": "RRIRTRPPRLPRPRPRPCDFPRP", "shrunken log2 fold change": 0.042},
      {"sequence": "RRIRGRPPRLPRPRPRPIGGPRP", "shrunken log2 fold change": 0.0174},
      {"sequence": "RRIRWRPPRLPRPRPRPATYPRP", "shrunken log2 fold change": 0.0311},
      {"sequence": "RRIRVRPPRLPRPRPRPTWSPRP", "shrunken log2 fold change": 0.0201},
      {"sequence": "RRIRLRPPRLPRPRPRPVYKPRP", "shrunken log2 fold change": -0.134},
      {"sequence": "RRIRNRPPRLPRPRPRPLLNPRP", "shrunken log2 fold change": -0.443},
      {"sequence": "RRIRYRPPRLPRPRPRPQEYPRP", "shrunken log2 fold change": -0.00804},
      {"sequence": "RRIRIRPPRLPRPRPRPFTTPRP", "shrunken log2 fold change": -0.509},
      {"sequence": "RRIRQRPPRLPRPRPRPDECPRP", "shrunken log2 fold change": 0.0568},
      {"sequence": "RRIRIRPPRLPRPRPRPNVLPRP", "shrunken log2 fold change": -0.349},
      {"sequence": "RRIRARPPRLPRPRPRPQNDPRP", "shrunken log2 fold change": "5.63e-05"},
      {"sequence": "RRIRTRPPRLPRPRPRPDFCPRP", "shrunken log2 fold change": -0.311},
      {"sequence": "RRIRQRPPRLPRPRPRPRDKPRP", "shrunken log2 fold change": 0.00325},
      {"sequence": "RRIRMRPPRLPRPRPRPHTFPRP", "shrunken log2 fold change": -0.384},
      {"sequence": "RRIRGRPPRLPRPRPRPGKCPRP", "shrunken log2 fold change": -0.0229},
      {"sequence": "RRIRYRPPRLPRPRPRPYVEPRP", "shrunken log2 fold change": -0.00822},
      {"sequence": "RRIRDRPPRLPRPRPRPFAKPRP", "shrunken log2 fold change": -0.0729},
      {"sequence": "RRIRERPPRLPRPRPRPLWKPRP", "shrunken log2 fold change": -0.424},
      {"sequence": "RRIRTRPPRLPRPRPRPGCIPRP", "shrunken log2 fold change": -0.22},
      {"sequence": "RRIRSRPPRLPRPRPRPQEIPRP", "shrunken log2 fold change": -0.16},
      {"sequence": "RRIRPRPPRLPRPRPRPKHFPRP", "shrunken log2 fold change": 0.328},
      {"sequence": "RRIRPRPPRLPRPRPRPIHIPRP", "shrunken log2 fold change": -0.405},
      {"sequence": "RRIRVRPPRLPRPRPRPKWYPRP", "shrunken log2 fold change": -0.194},
      {"sequence": "RRIRFRPPRLPRPRPRPWYAPRP", "shrunken log2 fold change": -0.791},
      {"sequence": "RRIRMRPPRLPRPRPRPQNEPRP", "shrunken log2 fold change": 0.155},
      {"sequence": "RRIRQRPPRLPRPRPRPNNEPRP", "shrunken log2 fold change": -0.885},
      {"sequence": "RRIRYRPPRLPRPRPRPHGIPRP", "shrunken log2 fold change": 0.0191},
      {"sequence": "RRIRWRPPRLPRPRPRPACPPRP", "shrunken log2 fold change": 0.105},
      {"sequence": "RRIRNRPPRLPRPRPRPGWHPRP", "shrunken log2 fold change": -0.154},
      {"sequence": "RRIRSRPPRLPRPRPRPMTFPRP", "shrunken log2 fold change": -0.202},
      {"sequence": "RRIRSRPPRLPRPRPRPNSMPRP", "shrunken log2 fold change": -0.215},
      {"sequence": "RRIRVRPPRLPRPRPRPKKLPRP", "shrunken log2 fold change": -0.0765},
      {"sequence": "RRIRGRPPRLPRPRPRPYGLPRP", "shrunken log2 fold change": 0.0992},
      {"sequence": "RRIRERPPRLPRPRPRPSARPRP", "shrunken log2 fold change": -0.192},
      {"sequence": "RRIRVRPPRLPRPRPRPTEVPRP", "shrunken log2 fold change": 0.0934},
      {"sequence": "RRIRIRPPRLPRPRPRPVMGPRP", "shrunken log2 fold change": -0.718},
      {"sequence": "RRIRYRPPRLPRPRPRPKCEPRP", "shrunken log2 fold change": -0.0192},
      {"sequence": "RRIRRRPPRLPRPRPRPEFLPRP", "shrunken log2 fold change": 0.441},
      {"sequence": "RRIRVRPPRLPRPRPRPPHVPRP", "shrunken log2 fold change": 0.283},
      {"sequence": "RRIRMRPPRLPRPRPRPAQKPRP", "shrunken log2 fold change": 1.2},
      {"sequence": "RRIRERPPRLPRPRPRPLCKPRP", "shrunken log2 fold change": -0.304},
      {"sequence": "RRIRQRPPRLPRPRPRPIFMPRP", "shrunken log2 fold change": -0.00126},
      {"sequence": "RRIRVRPPRLPRPRPRPVRFPRP", "shrunken log2 fold change": 0.391},
      {"sequence": "RRIRGRPPRLPRPRPRPMFLPRP", "shrunken log2 fold change": -0.0125},
      {"sequence": "RRIRMRPPRLPRPRPRPLDVPRP", "shrunken log2 fold change": 0.287},
      {"sequence": "RRIRNRPPRLPRPRPRPNPWPRP", "shrunken log2 fold change": 0.107},
      {"sequence": "RRIRLRPPRLPRPRPRPTQCPRP", "shrunken log2 fold change": 0.0455},
      {"sequence": "RRIRLRPPRLPRPRPRPYAYPRP", "shrunken log2 fold change": -0.0124},
      {"sequence": "RRIRYRPPRLPRPRPRPYRCPRP", "shrunken log2 fold change": 0.0155},
      {"sequence": "RRIRVRPPRLPRPRPRPAKCPRP", "shrunken log2 fold change": 0.0602},
      {"sequence": "RRIRQRPPRLPRPRPRPNDTPRP", "shrunken log2 fold change": -0.752},
      {"sequence": "RRIRIRPPRLPRPRPRPYHWPRP", "shrunken log2 fold change": -0.275},
      {"sequence": "RRIRQRPPRLPRPRPRPSLGPRP", "shrunken log2 fold change": -0.162},
      {"sequence": "RRIRNRPPRLPRPRPRPGFWPRP", "shrunken log2 fold change": 0.0198},
      {"sequence": "RRIRHRPPRLPRPRPRPSYDPRP", "shrunken log2 fold change": -0.0244},
      {"sequence": "RRIRARPPRLPRPRPRPESQPRP", "shrunken log2 fold change": 0.454}
    ]}
  ]
}
